Measurements taken from US8507275B2, “Method of inducing differentiation of embryonic stem cells into hemangioblast” (Korea Advanced Institute of Science and Technology (Kaist), priority 2008, dated 2013).

B1: BMP-4: bone morphogenetic protein, growth factor used to regulate differentiation of embryonic stem cells (protein, UniProt P12644 293-408, looked up)
Bone morphogenetic protein 4: SPKHHSQRARKKNKNCRRHSLYVDFSDVGWNDWIVAPPGYQAFYCHGDCPFPLADHLNSTNHAIVQTLVNSVNSSIPKACCVPTELSAISMLYLDEYDKVVLKNYQEMVVEGCGCR
B2: PDGF-BB: Platelet-derived growth factor-BB (protein, UniProt P01127 82-190, looked up)
Platelet-derived growth …: SLGSLTIAEPAMIAECKTRTEVFEISRRLIDRTNANFLVWPPCVEVQRCSGCCNNRNVQCRPTQVQLRPVQVRKIEIVRKKPIFKKATVTLEDHLACKCETVAAARPVT

Columns and labels:
[1] = system: human embryonic stem cells; assay: RT-PCR of mesoderm-specific marker genes in treated human embryonic stem cells; type: cell-based; details: PD98059 20˜50 μM, BMP-4 10˜20 ng/ml; 3 days and 5 days; FIG. 2(A)
Protocol: The human embryonic stem cells cultured in Example 1 were cultured for 3 days in a conditioned medium that contained the MEK1/2 inhibitors, PD98059 and BMP-4 at a concentration of 20˜50 μM and 10˜20 ng/ml, respectively. Then, in order to confirm the differentiation of human embryonic stem cells into mesodermal cells, expression of the mesoderm-specific marker genes was examined by RT-PCR. For analysis of gene expression, total RNA was isolated from cells, and cDNA was synthesized using reverse transcriptase, followed by PCR (polymerase-chain reaction) using primers specific to each gene.
As a control group, sample was cultured only in the conditioned medium for 5 days. As experimental groups, cells were cultured for 3 days and 5 days in culture media that were prepared by adding each of PD98059 and BMP-4 to the unconditioned medium at a concentration of 20˜50 μM and 10˜20 ng/ml, respectively. In addition, cells were simultaneously treated with PD98059 and BMP-4, and examined for 3 days and 5 days.

[2] = system: hESC-derived vascular smooth muscle cells; assay: Immunofluorescent staining of vascular smooth muscle cell-specific markers; type: cell-based, human; details: EGM with PDGF-BB; FIG. 5(b)
Protocol: In order to confirm the differentiation into vascular smooth muscle cell at protein level, expressions of the vascular smooth muscle cell-specific markers were examined by immunofluorescent staining. In order to stain the hESC-derived vascular smooth muscle cells with the vascular smooth muscle cell-specific markers, α-smooth muscle actin (α-SMA) and calponin, the sample was first fixed in 4% paraformaldehyde at room temperature for 20 min, and then washed with a PBST solution (0.1% Tween-20 in PBS) for 5 min three times. To allow permeabilization of antibodies into the nucleus, a permeating solution (0.1% Triton X-100 in PBS) was added to culture plates, and left at room temperature for 15 min. After 15 min, the permeating solution was removed, and 4% NGS (Normal Goat Serum) was added for blocking at room temperature for 1 hr. […] Next day, in order to examine expressions of the markers (α-SMA, calponin) under a fluorescence microscope, secondary antibodies against the marker antibodies (Alexa 488-conjugated Goat anti-mouse IgG and Alexa 594-conjugated Goat anti-Rabbit poly) were added, and left at room temperature for 1 hr. After 1 hr, the culture plates were washed with a PBST solution for 10 min five times, and a fluorescence microscope was used to examine their expressions.

[3] = system: CD34 positive cells (hESC-derived hemangioblasts); assay: RT-PCR of vascular smooth muscle cell-specific markers in CD34 positive cells; type: cell-based, human; details: EGM with PDGF-BB 50 ng/ml, about 5 days; FIG. 5(a)
Protocol: In order to differentiate CD34 positive cells into vascular smooth muscle cells, CD34 positive cells were cultured for about 5 days in EGM (Endothelial cell Growth Medium, clonetics, USA) containing PDGF-BB at a concentration of 50 ng/ml. Expressions of the vascular smooth muscle cell-specific markers were examined by RT-PCR. For analysis of gene expression, total RNA was isolated from cells, and cDNA was synthesized using reverse transcriptase, followed by PCR (polymerase-chain reaction) using primers specific to each gene.

Row | Molecule | Expressions of the mesoderm-specific markers BRACHYURY, GOOSECOID, TBX-4, TBX-5 and TBX-6 (RT-PCR) [1] | Expressions of the vascular smooth muscle cell-specific markers α-SMA and calponin at protein level (immunofluorescent staining) [2] | Expression of the vascular smooth muscle cell-specific markers SM22α, SM-MHC, PDGF-B receptor, α-SMA and calponin (RT-PCR) [3]
1 | COc1cccc(-c2cc(=O)c3ccccc3o2)c1N [PD98059, 2-(2-amino-3-methoxyphenyl)-4H-1-Benzopyran-4-one2-(2′-Amino-3′-methoxy)-flavone2-(2-amino-3-methoxyphenyl)-chromone, reference compound] | not observed | – | –
2 | B1 | not observed | – | –
3 | B2 | – | observed | found to express
